From the supplement of paper PMC10567573

B1: ZNF449 (parent)
chain: TLHQRTHTEERPFKCNYCGKSFRQ

Variants of: B1
Assay: protein stability index of a GFP-peptide fusion (GPS, HEK-293T) (PSI 1-6); higher = more stable
Conditions: c terminus: a fixed tail appended
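Further: lentivirally expressed fusions sorted by FACS into six bins by GFP to DsRed ratio, PSI derived from sequencing read proportions per bin multiplied by bin number.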

Variant	protein stability index
TLHQREHTEERPFKCNYCGKSFRQ [T6E]	2.67
TLHQRIHTEERPFKCNYCGKSFRQ [T6I]	2.33
TLHQRAHTEERPFKCNYCGKSFRQ [T6A]	2.38
TLHQRDHTEERPFKCNYCGKSFRQ [T6D]	2.56
TLHQRNHTEERPFKCNYCGKSFRQ [T6N]	2.08
TLHQRMHTEERPFKCNYCGKSFRQ [T6M]	2.03
TLHQRGHTEERPFKCNYCGKSFRQ [T6G]	1.85
TLHQRTHTEERPFKANYCGKSFRQ [C15A]	2.49
TLHQRTHTEERPFKHNYCGKSFRQ [C15H]	3.4
TLHQRTHTEERPFKWNYCGKSFRQ [C15W]	2.59
TLHQRTHTEERPFKYNYCGKSFRQ [C15Y]	3.26
TLHQRTHTEERPFKDNYCGKSFRQ [C15D]	3.87
TLHQRTHTEERPFKSNYCGKSFRQ [C15S]	3.7
TLHQRTHTEERPFKLNYCGKSFRQ [C15L]	1.4
TLHQRTHTEERPCKCNYCGKSFRQ [F13C]	3.05
TLHQRTHTEERPSKCNYCGKSFRQ [F13S]	2.26
TLHQRTHTEERPPKCNYCGKSFRQ [F13P]	2.24
TLHQRTFTEERPFKCNYCGKSFRQ [H7F]	2.13
TLHQRTQTEERPFKCNYCGKSFRQ [H7Q]	2.88
TLHQRTDTEERPFKCNYCGKSFRQ [H7D]	2.65
TLHQRTMTEERPFKCNYCGKSFRQ [H7M]	2.29
TLHQRTVTEERPFKCNYCGKSFRQ [H7V]	4.2
TLHQRTWTEERPFKCNYCGKSFRQ [H7W]	2.88
TLHQRTETEERPFKCNYCGKSFRQ [H7E]	2.5

Variant	protein stability index
TLHQRTGTEERPFKCNYCGKSFRQ [H7G]	1.97
TLHQRTYTEERPFKCNYCGKSFRQ [H7Y]	1.94
TLHQRTHMEERPFKCNYCGKSFRQ [T8M]	2.6
TLHQRTHREERPFKCNYCGKSFRQ [T8R]	1.99
TLHQRTHLEERPFKCNYCGKSFRQ [T8L]	1.64
TLHQRTHKEERPFKCNYCGKSFRQ [T8K]	3.13
TLHQRTHWEERPFKCNYCGKSFRQ [T8W]	1.82
TLHQRTHVEERPFKCNYCGKSFRQ [T8V]	2.59
TLHQRTHCEERPFKCNYCGKSFRQ [T8C]	2.3
TLHTRTHTEERPFKCNYCGKSFRQ [Q4T]	2.67
TLHRRTHTEERPFKCNYCGKSFRQ [Q4R]	3.24
TLHCRTHTEERPFKCNYCGKSFRQ [Q4C]	3.33
TLHIRTHTEERPFKCNYCGKSFRQ [Q4I]	1.71
TLHGRTHTEERPFKCNYCGKSFRQ [Q4G]	2.12
TLHDRTHTEERPFKCNYCGKSFRQ [Q4D]	2.41
TLHSRTHTEERPFKCNYCGKSFRQ [Q4S]	2.12
TLHYRTHTEERPFKCNYCGKSFRQ [Q4Y]	2.03
TLHMRTHTEERPFKCNYCGKSFRQ [Q4M]	2.08
TLHQRTHTEERPFKCLYCGKSFRQ [N16L]	1.85
TLHQRTHTEERPFKCQYCGKSFRQ [N16Q]	2.98
TLHQRTHTEERPFKCPYCGKSFRQ [N16P]	3.32
TLHQRTHTEERPFKCFYCGKSFRQ [N16F]	2.75
TLHQRTHTEERPFKCAYCGKSFRQ [N16A]	2.44
TLHQRTHTEERPFKCHYCGKSFRQ [N16H]	1.93

Variant	protein stability index
TLHQRTHTEERPFKCGYCGKSFRQ [N16G]	1.95
TLHQRTHTEERPFKCMYCGKSFRQ [N16M]	2.1
TLHQRTHTEERPFICNYCGKSFRQ [K14I]	2.27
TLHQRTHTEERPFTCNYCGKSFRQ [K14T]	1.9
TLHQRTHTEERPFHCNYCGKSFRQ [K14H]	2.31
TLHQRTHTEERPFDCNYCGKSFRQ [K14D]	2.41
TLHQRTHTEERPFPCNYCGKSFRQ [K14P]	2.83
TLHQRTHTEERPFNCNYCGKSFRQ [K14N]	1.95
TLHQRTHTEERPFYCNYCGKSFRQ [K14Y]	1.93
TLHQRTHTEERPFKCNYCGKSFRY [Q24Y]	3.2
TLHQRTHTEERPFKCNYCGKSFRH [Q24H]	2.12
TLHQRTHTEERPFKCNYCGKSFRP [Q24P]	2.87
TLHQRTHTEERPFKCNYCGKSFRN [Q24N]	2.27
TLHQRTHTEERPFKCNYCGKSFRC [Q24C]	1.84
TLHQRTHTEERPFKCNYCGKSFRG [Q24G]	2.62
TLHQRTHTEERPFKCNYCGKSFRT [Q24T]	2.75
TLHQRTHTEERPFKCNYCGKSFRD [Q24D]	2.24
TLHQRTHTEERPFKCNYCGKSFRM [Q24M]	2.77
TLHQRTHTEERPFKCNYVGKSFRQ [C18V]	2.12
TLHQRTHTEERPFKCNYKGKSFRQ [C18K]	3.12
TLHQRTHTEERPFKCNYDGKSFRQ [C18D]	3.48
TLHQRTHTEERPFKCNYIGKSFRQ [C18I]	2.92
TLHQRTHTEERPFKCNYSGKSFRQ [C18S]	3.17
TLHQRTHTEERPFKCNYYGKSFRQ [C18Y]	2.43

Variant	protein stability index
TLIQRTHTEERPFKCNYCGKSFRQ [H3I]	1.99
TLAQRTHTEERPFKCNYCGKSFRQ [H3A]	2.76
TLQQRTHTEERPFKCNYCGKSFRQ [H3Q]	2.83
TLDQRTHTEERPFKCNYCGKSFRQ [H3D]	2.62
TLGQRTHTEERPFKCNYCGKSFRQ [H3G]	2.4
TLKQRTHTEERPFKCNYCGKSFRQ [H3K]	2.89
TLHQRTHTENRPFKCNYCGKSFRQ [E10N]	2.48
TLHQRTHTERRPFKCNYCGKSFRQ [E10R]	1.81
TLHQRTHTEHRPFKCNYCGKSFRQ [E10H]	1.78
TLHQRTHTEPRPFKCNYCGKSFRQ [E10P]	1.91
TLHQRTHTEKRPFKCNYCGKSFRQ [E10K]	2.03
TLHQRTHTETRPFKCNYCGKSFRQ [E10T]	2.25
TLHQRTHTEMRPFKCNYCGKSFRQ [E10M]	2.73
TLHQRTHTEWRPFKCNYCGKSFRQ [E10W]	2.46
TLHQRTHTEFRPFKCNYCGKSFRQ [E10F]	1.48
TLHQRTHTEYRPFKCNYCGKSFRQ [E10Y]	2.55
RLHQRTHTEERPFKCNYCGKSFRQ [T1R]	2.02
PLHQRTHTEERPFKCNYCGKSFRQ [T1P]	2.56
VLHQRTHTEERPFKCNYCGKSFRQ [T1V]	3.17
ILHQRTHTEERPFKCNYCGKSFRQ [T1I]	2.21
SLHQRTHTEERPFKCNYCGKSFRQ [T1S]	3.59
WLHQRTHTEERPFKCNYCGKSFRQ [T1W]	2.01
CLHQRTHTEERPFKCNYCGKSFRQ [T1C]	3.64
QLHQRTHTEERPFKCNYCGKSFRQ [T1Q]	2.19

Variant	protein stability index
ELHQRTHTEERPFKCNYCGKSFRQ [T1E]	2.64
FLHQRTHTEERPFKCNYCGKSFRQ [T1F]	2.08
HLHQRTHTEERPFKCNYCGKSFRQ [T1H]	2.66
LLHQRTHTEERPFKCNYCGKSFRQ [T1L]	2.04
KLHQRTHTEERPFKCNYCGKSFRQ [T1K]	3.28
TLHQRTHTEERPFKCNYCAKSFRQ [G19A]	2.14
TLHQRTHTEERPFKCNYCMKSFRQ [G19M]	2.73
TLHQRTHTEERPFKCNYCDKSFRQ [G19D]	3.4
TLHQRTHTEERPFKCNYCPKSFRQ [G19P]	2.67
TLHQRTHTEERPFKCNYCHKSFRQ [G19H]	2.92
TLHQRTHTEERPFKCNYCRKSFRQ [G19R]	2.6
TLHQRTHTEERPFKCNYCGKDFRQ [S21D]	2.75
TLHQRTHTEERPFKCNYCGKRFRQ [S21R]	2.38
TLHQRTHTEERPFKCNYCGKAFRQ [S21A]	1.92
TLHQRTHTEERPFKCNYCGKMFRQ [S21M]	2.19
TLHQRTHTEERPFKCNYCGKPFRQ [S21P]	2.15
TLHQRTHTEERPFKCNYCGKIFRQ [S21I]	2.26
TLHQRTHTEERPFKCNYCGKFFRQ [S21F]	1.68
TLHQRTHTEERPFKCNYCGKTFRQ [S21T]	2.91
TLHQRTHTEERPFKCNYCGKHFRQ [S21H]	2.58
TLHQFTHTEERPFKCNYCGKSFRQ [R5F]	1.78
TLHQDTHTEERPFKCNYCGKSFRQ [R5D]	2.91
TLHQYTHTEERPFKCNYCGKSFRQ [R5Y]	2.4
TLHQLTHTEERPFKCNYCGKSFRQ [R5L]	2.24

Variant	protein stability index
TLHQRTHTIERPFKCNYCGKSFRQ [E9I]	1.8
TLHQRTHTCERPFKCNYCGKSFRQ [E9C]	2.4
TLHQRTHTGERPFKCNYCGKSFRQ [E9G]	2.97
TLHQRTHTKERPFKCNYCGKSFRQ [E9K]	3.15
TLHQRTHTVERPFKCNYCGKSFRQ [E9V]	1.76
TLHQRTHTPERPFKCNYCGKSFRQ [E9P]	1.93
TLHQRTHTEERPFKCNYCGKSNRQ [F22N]	3.51
TLHQRTHTEERPFKCNYCGKSIRQ [F22I]	2.02
TLHQRTHTEERPFKCNYCGKSWRQ [F22W]	1.74
TLHQRTHTEERPFKCNYCGKSYRQ [F22Y]	2.35
TLHQRTHTEERPFKCNYCGKSTRQ [F22T]	2.49
TLHQRTHTEERPFKCNYCGKSERQ [F22E]	3.02
TLHQRTHTEERPFKCNYCGKSVRQ [F22V]	3.59
TLHQRTHTEERPFKCNYCGKSRRQ [F22R]	1.48
TLHQRTHTEERPFKCNSCGKSFRQ [Y17S]	2.55
TLHQRTHTEERPFKCNECGKSFRQ [Y17E]	2.3
TLHQRTHTEERPFKCNWCGKSFRQ [Y17W]	2.61
TLHQRTHTEERPFKCNMCGKSFRQ [Y17M]	2.4
TLHQRTHTEERPFKCNPCGKSFRQ [Y17P]	2.98
TLHQRTHTEERPFKCNLCGKSFRQ [Y17L]	2.15
TLHQRTHTEERPFKCNNCGKSFRQ [Y17N]	3.21
TLHQRTHTEERGFKCNYCGKSFRQ [P12G]	2.52
TLHQRTHTEERKFKCNYCGKSFRQ [P12K]	2.89
TLHQRTHTEERLFKCNYCGKSFRQ [P12L]	3.05

Variant	protein stability index
TLHQRTHTEERNFKCNYCGKSFRQ [P12N]	2.41
TLHQRTHTEERCFKCNYCGKSFRQ [P12C]	2.94
TLHQRTHTEERVFKCNYCGKSFRQ [P12V]	2.57
TLHQRTHTEERIFKCNYCGKSFRQ [P12I]	3.29
TLHQRTHTEERFFKCNYCGKSFRQ [P12F]	2.25
TLHQRTHTEERQFKCNYCGKSFRQ [P12Q]	2.79
TLHQRTHTEERAFKCNYCGKSFRQ [P12A]	2.81
TLHQRTHTEETPFKCNYCGKSFRQ [R11T]	2.33
TLHQRTHTEEDPFKCNYCGKSFRQ [R11D]	3.19
TLHQRTHTEECPFKCNYCGKSFRQ [R11C]	2.24
TLHQRTHTEEFPFKCNYCGKSFRQ [R11F]	1.92
TLHQRTHTEEAPFKCNYCGKSFRQ [R11A]	2.39
TLHQRTHTEEVPFKCNYCGKSFRQ [R11V]	2.54
TLHQRTHTEEWPFKCNYCGKSFRQ [R11W]	2.09
TLHQRTHTEENPFKCNYCGKSFRQ [R11N]	2.42
TLHQRTHTEERPFKCNYCGKSFLQ [R23L]	2.4
TLHQRTHTEERPFKCNYCGKSFNQ [R23N]	2.35
TLHQRTHTEERPFKCNYCGKSFYQ [R23Y]	2.72
TLHQRTHTEERPFKCNYCGKSFAQ [R23A]	2.69
TLHQRTHTEERPFKCNYCGKSFMQ [R23M]	2.8
TLHQRTHTEERPFKCNYCGKSFCQ [R23C]	4.7
TLHQRTHTEERPFKCNYCGKSFEQ [R23E]	3.53
TLHQRTHTEERPFKCNYCGKSFWQ [R23W]	2.29
TLHQRTHTEERPFKCNYCGKSFQQ [R23Q]	2.16

Variant	protein stability index
TLHQRTHTEERPFKCNYCGKSFHQ [R23H]	2.79
TLHQRTHTEERPFKCNYCGKSFDQ [R23D]	3
TLHQRTHTEERPFKCNYCGHSFRQ [K20H]	1.91
TLHQRTHTEERPFKCNYCGMSFRQ [K20M]	2.79
TLHQRTHTEERPFKCNYCGYSFRQ [K20Y]	1.9
TLHQRTHTEERPFKCNYCGWSFRQ [K20W]	1.88
TLHQRTHTEERPFKCNYCGISFRQ [K20I]	2.1
TLHQRTHTEERPFKCNYCGTSFRQ [K20T]	2.58
TLHQRTHTEERPFKCNYCGLSFRQ [K20L]	2.07
TLHQRTHTEERPFKCNYCGQSFRQ [K20Q]	1.82
TLHQRTHTEERPFKCNYCGRSFRQ [K20R]	3.28
TPHQRTHTEERPFKCNYCGKSFRQ [L2P]	2.88
TQHQRTHTEERPFKCNYCGKSFRQ [L2Q]	2.41
TTHQRTHTEERPFKCNYCGKSFRQ [L2T]	2.27
TFHQRTHTEERPFKCNYCGKSFRQ [L2F]	3.22
TCHQRTHTEERPFKCNYCGKSFRQ [L2C]	3.15
TEHQRTHTEERPFKCNYCGKSFRQ [L2E]	3.64
TVHQRTHTEERPFKCNYCGKSFRQ [L2V]	2.4
TIHQRTHTEERPFKCNYCGKSFRQ [L2I]	2.17
TSHQRTHTEERPFKCNYCGKSFRQ [L2S]	2.7
